Article PMC4014439, “Mlh2 Is an Accessory Factor for DNA Mismatch Repair in Saccharomyces cerevisiae” (PLoS Genetics, 2014)

Columns and labels:
[1] = target: T1, S. cerevisiae Msh2-Msh3 (S. cerevisiae, UniProt P25847 1-964; P25336 1-1018); assay: SPR; Biacore T100, 25°C; biotinylated 236 bp DNA (GC base pair, central TG mispair or +T insertion, lacO end blocked by 30 nM LacI) on a streptavidin SA chip; 20 nM Msh2-Msh6 or Msh2-Msh3 with 250 µM ATP injected for 100 s, then the same mixture with 40 nM Mlh1-Pms1 or Mlh1-Mlh2 for 150 s; 25 mM Tris-Cl pH 8.0, 4 mM MgCl2, 110 mM NaCl, 0.01% Igepal, 2 mM DTT, 2% glycerol; signal of the MutL homolog on DNA alone …; conditions: both partners purified
T1 construct: Msh2, S. cerevisiae, expressed from pRDK354 (pGAL1-10-MSH2 URA3); Msh3, S. cerevisiae, expressed from pRDK1596 (pGAL1-10 MSH3-FLAG LEU2); also called Msh2-Msh3 heterodimer; source: S. cerevisiae RDKY2418 with pRDK354 and pRDK1596, purified as described previously
T1 sequence (P25847 whole entry, chain 1 of 2): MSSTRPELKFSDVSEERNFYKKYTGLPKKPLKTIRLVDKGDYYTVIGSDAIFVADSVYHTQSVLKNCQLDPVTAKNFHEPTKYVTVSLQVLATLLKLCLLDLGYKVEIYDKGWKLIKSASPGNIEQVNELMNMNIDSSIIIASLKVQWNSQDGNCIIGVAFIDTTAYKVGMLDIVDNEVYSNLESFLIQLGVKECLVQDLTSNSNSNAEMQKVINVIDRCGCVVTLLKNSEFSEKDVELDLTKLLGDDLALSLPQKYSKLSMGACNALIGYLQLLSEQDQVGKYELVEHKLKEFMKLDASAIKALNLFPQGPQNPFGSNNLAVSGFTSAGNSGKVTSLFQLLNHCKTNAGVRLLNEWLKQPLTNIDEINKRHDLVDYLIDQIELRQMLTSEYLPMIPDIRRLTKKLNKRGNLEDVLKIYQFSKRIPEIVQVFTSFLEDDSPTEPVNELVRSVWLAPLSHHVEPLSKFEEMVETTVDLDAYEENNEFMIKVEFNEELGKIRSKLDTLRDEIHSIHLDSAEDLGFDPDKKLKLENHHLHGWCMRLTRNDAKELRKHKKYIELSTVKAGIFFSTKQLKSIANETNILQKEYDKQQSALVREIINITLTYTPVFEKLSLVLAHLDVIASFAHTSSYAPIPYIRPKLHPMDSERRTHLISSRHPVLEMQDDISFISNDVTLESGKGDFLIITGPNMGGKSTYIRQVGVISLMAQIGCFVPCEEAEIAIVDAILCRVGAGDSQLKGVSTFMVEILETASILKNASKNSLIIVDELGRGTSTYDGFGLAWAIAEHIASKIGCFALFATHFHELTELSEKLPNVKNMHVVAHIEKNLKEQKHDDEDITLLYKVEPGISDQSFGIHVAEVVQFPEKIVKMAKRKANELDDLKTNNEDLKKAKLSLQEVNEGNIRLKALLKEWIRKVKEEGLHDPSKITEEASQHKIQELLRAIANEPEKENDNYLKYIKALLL
T1 sequence (P25336 whole entry, chain 2 of 2): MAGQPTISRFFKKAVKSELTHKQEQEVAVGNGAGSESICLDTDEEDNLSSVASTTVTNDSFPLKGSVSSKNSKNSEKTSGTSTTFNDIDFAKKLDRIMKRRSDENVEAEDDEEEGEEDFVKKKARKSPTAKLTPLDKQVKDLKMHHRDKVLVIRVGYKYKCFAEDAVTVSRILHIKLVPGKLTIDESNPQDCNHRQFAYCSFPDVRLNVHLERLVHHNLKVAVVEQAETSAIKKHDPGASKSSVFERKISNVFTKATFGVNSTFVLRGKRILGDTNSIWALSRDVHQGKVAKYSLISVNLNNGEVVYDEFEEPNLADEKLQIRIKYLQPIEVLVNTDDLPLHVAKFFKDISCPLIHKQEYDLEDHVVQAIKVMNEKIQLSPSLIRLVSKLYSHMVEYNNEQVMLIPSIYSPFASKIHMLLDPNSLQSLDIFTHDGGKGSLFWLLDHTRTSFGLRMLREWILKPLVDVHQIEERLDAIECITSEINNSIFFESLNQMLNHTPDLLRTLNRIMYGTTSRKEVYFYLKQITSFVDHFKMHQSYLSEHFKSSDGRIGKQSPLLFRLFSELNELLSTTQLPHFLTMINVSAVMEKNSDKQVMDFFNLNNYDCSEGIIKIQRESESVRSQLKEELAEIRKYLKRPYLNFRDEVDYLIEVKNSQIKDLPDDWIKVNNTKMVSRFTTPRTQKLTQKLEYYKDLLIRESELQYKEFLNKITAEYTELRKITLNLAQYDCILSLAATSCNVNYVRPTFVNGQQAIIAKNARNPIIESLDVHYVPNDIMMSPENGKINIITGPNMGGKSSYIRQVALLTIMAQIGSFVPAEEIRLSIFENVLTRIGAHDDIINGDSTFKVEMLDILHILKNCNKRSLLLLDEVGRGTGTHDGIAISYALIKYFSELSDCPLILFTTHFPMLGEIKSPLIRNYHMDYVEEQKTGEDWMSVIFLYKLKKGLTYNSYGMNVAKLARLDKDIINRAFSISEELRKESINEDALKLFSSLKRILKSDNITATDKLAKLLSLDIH

[2] = target: T2, S. cerevisiae wild type Msh2-Msh6 (S. cerevisiae, UniProt P25847 1-964; Q03834 1-1242); assay: as above; conditions: both partners purified
T2 construct: Msh2, S. cerevisiae, wild type, from the pET11 MSH2-MSH6 plasmid; Msh6, S. cerevisiae, wild type, from the pET11 MSH2-MSH6 plasmid; also called Msh2-Msh6 heterodimer; source: E. coli BL21 (DE) RIL, pET11 MSH2-MSH6 plasmid, purified according to a previously published procedure
T2 sequence (P25847 whole entry, chain 1 of 2): as the sequence (P25847 whole entry, chain 1 of 2) above
T2 sequence (Q03834 whole entry, chain 2 of 2): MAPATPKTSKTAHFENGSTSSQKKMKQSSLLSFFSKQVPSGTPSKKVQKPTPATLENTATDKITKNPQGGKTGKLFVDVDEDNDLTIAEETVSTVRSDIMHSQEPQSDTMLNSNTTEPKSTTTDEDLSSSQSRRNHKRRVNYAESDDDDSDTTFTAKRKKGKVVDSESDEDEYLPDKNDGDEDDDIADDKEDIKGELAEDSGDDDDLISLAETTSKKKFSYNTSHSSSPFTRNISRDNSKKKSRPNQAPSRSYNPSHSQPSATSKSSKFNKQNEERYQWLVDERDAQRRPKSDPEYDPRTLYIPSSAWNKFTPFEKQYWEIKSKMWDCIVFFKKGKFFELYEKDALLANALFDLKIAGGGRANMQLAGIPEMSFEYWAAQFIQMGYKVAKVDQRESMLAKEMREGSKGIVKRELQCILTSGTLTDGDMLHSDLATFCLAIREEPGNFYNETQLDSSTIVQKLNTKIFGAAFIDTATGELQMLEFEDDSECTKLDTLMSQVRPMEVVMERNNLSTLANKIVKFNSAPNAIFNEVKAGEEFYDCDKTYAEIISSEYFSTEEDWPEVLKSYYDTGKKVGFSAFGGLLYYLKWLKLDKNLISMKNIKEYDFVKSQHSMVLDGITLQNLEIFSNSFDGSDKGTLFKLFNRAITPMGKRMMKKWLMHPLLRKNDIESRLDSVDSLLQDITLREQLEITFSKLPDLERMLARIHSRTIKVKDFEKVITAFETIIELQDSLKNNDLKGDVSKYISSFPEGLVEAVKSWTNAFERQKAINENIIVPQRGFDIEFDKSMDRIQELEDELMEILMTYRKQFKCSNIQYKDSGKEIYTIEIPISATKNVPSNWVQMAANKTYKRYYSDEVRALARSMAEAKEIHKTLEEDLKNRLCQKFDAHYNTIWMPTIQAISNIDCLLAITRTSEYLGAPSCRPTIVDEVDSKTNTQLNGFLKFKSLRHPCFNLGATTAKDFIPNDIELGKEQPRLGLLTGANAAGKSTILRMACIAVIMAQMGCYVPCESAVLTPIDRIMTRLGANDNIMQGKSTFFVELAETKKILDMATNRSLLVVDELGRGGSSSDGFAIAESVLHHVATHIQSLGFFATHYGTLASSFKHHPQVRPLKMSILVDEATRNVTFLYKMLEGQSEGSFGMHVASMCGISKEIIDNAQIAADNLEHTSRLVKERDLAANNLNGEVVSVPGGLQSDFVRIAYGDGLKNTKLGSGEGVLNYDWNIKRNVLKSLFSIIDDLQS

binding result [1]	binding result [2]	Binder
binds	binds	S. cerevisiae Mlh1-Pms1 complex (complex, Mlh1, S. cerevisiae, expressed from pRDK573 (pGAL1-10-MLH1 TRP1); Pms1, S. cerevisiae, expressed from pRDK1099 (pGAL1-10-PMS1-FLAG LEU2); also called Mlh1-Pms1 heterodimer) chain 1: MSLRIKALDASVVNKIAAGEIIISPVNALKEMMENSIDANATMIDILVKEGGIKVLQITDNGSGINKADLPILCERFTTSKLQKFEDLSQIQTYGFRGEALASISHVARVTVTTKVKEDRCAWRVSYAEGKMLESPKPVAGKDGTTILVEDLFFNIPSRLRALRSHNDEYSKILDVVGRYAIHSKDIGFSCKKFGDSNYSLSVKPSYTVQDRIRTVFNKSVASNLITFHISKVEDLNLESVDGKVCNLNFISKKSISPIFFINNRLVTCDLLRRALNSVYSNYLPKGNRPFIYLGIVIDPAAVDVNVHPTKREVRFLSQDEIIEKIANQLHAELSAIDTSRTFKASSISTNKPESLIPFNDTIESDRNRKSLRQAQVVENSYTTANSQLRKAKRQENKLVRIDASQAKITSFLSSSQQFNFEGSSTKRQLSEPKVTNVSHSQEAEKLTLNESEQPRDANTINDNDLKDQPKKKQKLGDYKVPSIADDEKNALPISKDGYIRVPKERVNVNLTSIKKLREKVDDSIHRELTDIFANLNYVGVVDEERRLAAIQHDLKLFLIDYGSVCYELFYQIGLTDFANFGKINLQSTNVSDDIVLYNLLSEFDELNDDASKEKIISKIWDMSSMLNEYYSIELVNDGLDNDLKSVKLKSLPLLLKGYIPSLVKLPFFIYRLGKEVDWEDEQECLDGILREIALLYIPDMVPKVDTSDASLSEDEKAQFINRKEHISSLLEHVLFPCIKRRFLAPRHILKDVVEIANLPDLYKVFERC chain 2: MTQIHQINDIDVHRITSGQVITDLTTAVKELVDNSIDANANQIEIIFKDYGLESIECSDNGDGIDPSNYEFLALKHYTSKIAKFQDVAKVQTLGFRGEALSSLCGIAKLSVITTTSPPKADKLEYDMVGHITSKTTTSRNKGTTVLVSQLFHNLPVRQKEFSKTFKRQFTKCLTVIQGYAIINAAIKFSVWNITPKGKKNLILSTMRNSSMRKNISSVFGAGGMRGLEEVDLVLDLNPFKNRMLGKYTDDPDFLDLDYKIRVKGYISQNSFGCGRNSKDRQFIYVNKRPVEYSTLLKCCNEVYKTFNNVQFPAVFLNLELPMSLIDVNVTPDKRVILLHNERAVIDIFKTTLSDYYNRQELALPKRMCSQSEQQAQKRLKTEVFDDRSTTHESDNENYHTARSESNQSNHAHFNSTTGVIDKSNGTELTSVMDGNYTNVTDVIGSECEVSVDSSVVLDEGNSSTPTKKLPSIKTDSQNLSDLNLNNFSNPEFQNITSPDKARSLEKVVEEPVYFDIDGEKFQEKAVLSQADGLVFVDNECHEHTNDCCHQERRGSTDTEQDDEADSIYAEIEPVEINVRTPLKNSRKSISKDNYRSLSDGLTHRKFEDEILEYNLSTKNFKEISKNGKQMSSIISKRKSEAQENIIKNKDELEDFEQGEKYLTLTVSKNDFKKMEVVGQFNLGFIIVTRKVDNKYDLFIVDQHASDEKYNFETLQAVTVFKSQKLIIPQPVELSVIDELVVLDNLPVFEKNGFKLKIDEEEEFGSRVKLLSLPTSKQTLFDLGDFNELIHLIKEDGGLRRDNIRCSKIRSMFAMRACRSSIMIGKPLNKKTMTRVVHNLSELDKPWNCPHGRPTMRHLMELRDWSSFSKDYEI
binds	binds	S. cerevisiae Mlh1-Mlh2 complex (complex, Mlh1, S. cerevisiae, expressed from pRDK573 (pGAL1-10-MLH1 TRP1); Mlh2, S. cerevisiae, MLH2 ORF put in place of the PMS1 ORF of pRDK1099, giving pRDK1664 (pGAL1-10-Mlh2-FLAG LEU2); Purified as a preformed complex through the FLAG tag on Mlh2; used at 40 nM in the SPR assay; also called Mlh1-Mlh2 heterodimer) chain 1: MSLRIKALDASVVNKIAAGEIIISPVNALKEMMENSIDANATMIDILVKEGGIKVLQITDNGSGINKADLPILCERFTTSKLQKFEDLSQIQTYGFRGEALASISHVARVTVTTKVKEDRCAWRVSYAEGKMLESPKPVAGKDGTTILVEDLFFNIPSRLRALRSHNDEYSKILDVVGRYAIHSKDIGFSCKKFGDSNYSLSVKPSYTVQDRIRTVFNKSVASNLITFHISKVEDLNLESVDGKVCNLNFISKKSISPIFFINNRLVTCDLLRRALNSVYSNYLPKGNRPFIYLGIVIDPAAVDVNVHPTKREVRFLSQDEIIEKIANQLHAELSAIDTSRTFKASSISTNKPESLIPFNDTIESDRNRKSLRQAQVVENSYTTANSQLRKAKRQENKLVRIDASQAKITSFLSSSQQFNFEGSSTKRQLSEPKVTNVSHSQEAEKLTLNESEQPRDANTINDNDLKDQPKKKQKLGDYKVPSIADDEKNALPISKDGYIRVPKERVNVNLTSIKKLREKVDDSIHRELTDIFANLNYVGVVDEERRLAAIQHDLKLFLIDYGSVCYELFYQIGLTDFANFGKINLQSTNVSDDIVLYNLLSEFDELNDDASKEKIISKIWDMSSMLNEYYSIELVNDGLDNDLKSVKLKSLPLLLKGYIPSLVKLPFFIYRLGKEVDWEDEQECLDGILREIALLYIPDMVPKVDTSDASLSEDEKAQFINRKEHISSLLEHVLFPCIKRRFLAPRHILKDVVEIANLPDLYKVFERC chain 2: MTIHQLSPESQWKIVSSSFIYGPVAAVRELLDNSIDSGAKKVFIDVDSTTGGCEYISVKDDGSGVDIIDRPSMCLEYTTSKMSSLGDISILTTLGFRGEALFLLSNLCNQKGSMQVETKTADDVIGEKWLVDSKGGITNGKRYKVSCPVGTTVILRKLLGGLRARYLEISSRPRKTFDELIYLINHYSLIHRNIRFYFSLVSLQKNGAIERKQMQETLDPKISRARSLSLLARLKKPVPLNFIVEENFVIDEKINLDLILPRMVPESDVINIKRRFKFLSVNERALSLNLETGKTISKLLSSIYRDFSLLDPMVWFINLNCDTKLLDVNIEPEKNDVMIKSFEVIFKKIENKLKLLLEERIGIETNMLGDKHVQPSINEKTSPALVIPTPDAENEISKGCGAVSGKDKTDIPQKNSDLIVPTFYDEANLENTTIVAATPSPTKFSEDKALDEQTQLTISSYRSSSSGSMASEDSTNWRHNFQQELSENSEVAGAGSSTLPSSLTYNYIETIPENEDLELSKDASISNPFMITKIRNVNKKLSENLLEAKRTSCGDANKRGMPNERQLSNTEKKELIKLQQTYGKRNNTVDMTIPRNSKKKVTDNYIKKASCMHKTRPKLMHFSEYTNNYVYTLKNEKIVKHDSDNFAKETLWLRSRDDATSPSSSLLQALRAHVKKPGHIEATTNEWCLFTPDSP
